T1: human IGFR-like receptor (UPF0577 protein KIAA1324) (human, UniProt Q6UXG2 42-1013)
T1 construct: Endogenous protein in lysates of human MCF7 cells and human islet cells, seen as a band of ~130 kDa on Western blot; also called IGFR-I; IGF3R
T1 sequence: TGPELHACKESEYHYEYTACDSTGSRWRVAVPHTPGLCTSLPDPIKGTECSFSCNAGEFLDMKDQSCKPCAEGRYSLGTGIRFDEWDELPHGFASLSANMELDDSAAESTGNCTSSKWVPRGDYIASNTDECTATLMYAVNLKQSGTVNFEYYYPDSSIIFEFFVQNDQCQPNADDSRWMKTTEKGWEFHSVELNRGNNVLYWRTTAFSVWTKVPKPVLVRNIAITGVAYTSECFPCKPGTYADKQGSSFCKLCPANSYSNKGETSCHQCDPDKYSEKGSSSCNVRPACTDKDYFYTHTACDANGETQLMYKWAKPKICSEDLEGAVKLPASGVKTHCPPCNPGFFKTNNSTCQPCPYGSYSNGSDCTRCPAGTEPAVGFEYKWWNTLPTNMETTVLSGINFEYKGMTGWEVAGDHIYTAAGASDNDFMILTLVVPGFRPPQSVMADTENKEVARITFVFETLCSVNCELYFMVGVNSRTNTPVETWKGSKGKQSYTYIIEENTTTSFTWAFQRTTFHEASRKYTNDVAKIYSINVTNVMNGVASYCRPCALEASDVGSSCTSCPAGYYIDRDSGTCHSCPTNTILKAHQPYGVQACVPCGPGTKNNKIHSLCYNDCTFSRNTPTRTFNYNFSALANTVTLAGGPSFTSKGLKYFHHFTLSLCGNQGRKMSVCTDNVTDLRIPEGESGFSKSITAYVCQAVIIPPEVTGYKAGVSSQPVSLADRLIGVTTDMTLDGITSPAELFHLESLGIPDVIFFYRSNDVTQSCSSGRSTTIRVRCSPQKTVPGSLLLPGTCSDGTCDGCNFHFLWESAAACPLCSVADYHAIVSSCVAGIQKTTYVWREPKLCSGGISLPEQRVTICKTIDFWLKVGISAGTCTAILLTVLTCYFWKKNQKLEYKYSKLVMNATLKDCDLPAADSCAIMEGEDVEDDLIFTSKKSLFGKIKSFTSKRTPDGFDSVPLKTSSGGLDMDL


Target: T1, human IGFR-like receptor (UPF0577 …)
Experiment: Western blot, MCF7 cell lysate (strong)
Excerpt: FIG. 29: Detection of IGFR-like receptor in mouse Min6 insulinoma cells and human MCF7 breast cancer cells using antibody against the extracellular domain of IGFR-like receptor. Western blotting experiments show specific recognition of a protein band of ˜130 kDa in Min6 (weak) and MCF7 (strong) cell lysates by an antibody against the extracellular domain SEQ ID NO: 4 (EIG-B 1862: VHC: SEQ ID NO:31, VLC: SEQ ID NO:32; and 10D9: VHC: SEQ ID NO:33, VLC: SEQ ID NO:34) and SEQ ID NO: 6 (EIG-D 26D7: VHC: SEQ ID NO:35, VLC: SEQ ID NO:36). The EIG-B clones are monoclonal antibodies generated against the peptide SEQ ID NO: 4 in rat, whereas the EIG-D clone is a monoclonal antibody generated against the SEQ ID NO: 6 in mouse.
Cells and tissues were lysed in RIPA buffer (50 mM Tris pH7.5, 150 mM NaCl, 1 mM EDTA, 1% IGEPAL, 0.1% SDS, 0.1% Na deoxycholate) containing a cocktail of proteinase inhibitor (1:100, Sigma, P8340) and phosphatases inhibitors (1:100, Sigma Aldrich, #2 P0044 and #3 P5726) and the cell or tissue lysates were cleared by centrifugation at 13000 r.p.m. for 10-30 min. The proteins (10-20 μg) were resolved in 6.5-15% SDS-PAGE according to the protein size to be detected and transferred to a PVDF membrane. Primary antibodies were added to the membrane in 5% milk and incubated at 4° C. overnight. Protein bands were visualized on Hyperfilms™ (GE healthcare, 28906837) or Blaufilme™ CEA-RP (Ernst Christiansen GmbH, EC84A) by chemiluminescent detection (ECL, Millipore, WBKLS0500).

binding result | Binder
binds | EIG-B 18B2 (antibody, V domains shown, Rat monoclonal antibody from a hybridoma; Only the variable regions are tied to the clone by name; also called EIG-B 1862) VH: QVQLKESGPGLVQPSQTLSLTCTVSGFSLTSYHISWVRQPPGKGLEWIAAISSGGDTYYNSLLKSRLSISRDTSKSQVFLKMNRLQTEDTAFYFCNGESYWGQGTLVTVSS VL: DVVLTQSPATLSVTPGERISLSCRASENIDTYLHWFQQKPNESPRLLIKFASQSISGIPSRFSGSGSGRDFTLSINGVELEDLSIYYCQQGNILPYTFGAGTRLELKR
binds | EIG-B 10D9 (antibody, V domains shown, Rat monoclonal antibody from a hybridoma; Only the variable regions are tied to the clone by name; The constant regions are not tied to the clone) VH: QVQLKESGPGLVQPSQTLSLTCTVSGFSLTSYHISWVRQPPGKGLEWIAAISSGGDTYYNSLLKSRLSISRDTSKSQVFLKMNRLQTEDTAFYFCNGESYWGQGTLVTVSS VL: DVVLTQSPATLSVTPGERISLSCRASENIDTYLHWFQQKPNESPRLLIKFASQSISGIPSRFSGSGSGTDFTLSINGVELEDLSIYYCQQGNILPYTFGAGTKLELKR
binds | EIG-D 26D7 (antibody, V domains shown, Mouse monoclonal antibody from a hybridoma; Only the variable regions are tied to the clone by name; The constant regions are not tied to the clone) VH: QVQLQQPGADLVRPGSSVKLSCKASGYSFTSYWMDWVKQRPGQGLEWIGNIYPSDGETHYNQKFKDKATLTVDKSSSTAYMQLSSLTSEDSAVYYCARLYSEYGSWGQGTTLTVSS VL: DIVMTQSPSSLTVTTGEKVTMSCKSSQSLLNSGNQKNYLTWYQQRPGQPPKLLIYWASTRDSGVPDRFTGSGSGTDFTLTISSVQAADLAVYYCQNDYSYPLTFGAGTKLELKR
